Measured values: patent US20030077679

T1: human EID-1 with an N-terminal V5-HIS6 tag (in p423CDN)
T1 chain: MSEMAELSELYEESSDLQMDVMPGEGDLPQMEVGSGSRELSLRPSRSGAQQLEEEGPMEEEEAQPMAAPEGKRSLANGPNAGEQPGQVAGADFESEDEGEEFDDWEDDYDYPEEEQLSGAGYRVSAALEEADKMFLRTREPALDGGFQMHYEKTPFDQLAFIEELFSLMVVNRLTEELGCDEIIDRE

T2: human EID-1 (SEQ ID NO:4) expressed in E. coli as an N-terminal HIS6 fusion
T2 chain: T1 chain

B1: human DYRK3 catalytic domain (amino acids 142-526 of SEQ ID NO:2) with an N-terminal GST-tag and C-terminal HIS6-tag (protein)
chain: PEQALKQYKHHLTAYEKLEIINYPEIYFVGPNAKKRHGVIGGPNNGGYDDADGAYIHVPRDHLAYRYEVLKIIGKGSFGQVARVYDHKLRQYVALKMVRNEKRFHRQAAEEIRILEHLKKQDKTGSMNVIHMLESFTFRNHVCMAFELLSIDLYELIKKNKFQGFSVQLVRKFAQSILQSLDALHKNKIIHCDLKPENILLKHHGRSSTKVIDFGSSCFEYQKLYTYIQSRFYRAPEIILGSRYSTPIDIWSFGCILAELLTGQPLFPGEDEGDQLACMMELLGMPPPKLLEQSKRAKYFINSKGIPRYCSVTTQADGRVVLVGGRSRRGKKRGPPGSKDWGTALKGCDDYLFIEFLKRCLHWDPSARLTPAQALRHPWISKSVP
B2: recombinant hDYRK3 (SEQ ID NO: 2) as used in Example 4 (protein)
chain: MGGTARGPGRKDAGPPGAGLPPQQRRLGDGVDTFMMIDETKCPPCSNVLCNPSEPPPPRRLNMTTEQFTGDHTQHFLDGGEMKVEQLFQEFGNRKSNTIQSDGISDSEKCSPTVSQGKSSDCLNTVKSNSSSKAPKVVPLTPEQALKQYKHHLTAYEKLEIINYPEIYFVGPNAKKRHGVIGGPNNGGYDDADGAYIHVPRDHLAYRYEVLKIIGKGSFGQVARVYDHKLRQYVALKMVRNEKRFHRQAAEEIRILEHLKKQDKTGSMNVIHMLESFTFRNHVCMAFELLSIDLYELIKKNKFQGFSVQLVRKFAQSILQSLDALHKNKIIHCDLKPENILLKHHGRSSTKVIDFGSSCFEYQKLYTYIQSRFYRAPEIILGSRYSTPIDIWSFGCILAELLTGQPLFPGEDEGDQLACMMELLGMPPPKLLEQSKRAKYFINSKGIPRYCSVTTQADGRVVLVGGRSRRGKKRGPPGSKDWGTALKGCDDYLFIEFLKRCLHWDPSARLTPAQALRHPWISKSVPRPLTTIDKVSGKRVVNPASAFQGLGSKLPPVVGIANKLKANLMSETNGSIPLCSVLPKLIS
B3: human DYRK2 (SEQ ID NO:6) with an N-terminal HIS6-tag (protein)
chain: MNDHLHVGSHAHGQIQVQQLFEDNSNKRTVLTTQPNGLTTVGKTGLPVVPERQLDSIHRRQGSSTSLKSMEGMGKVKATPMTPEQAMKQYMQKLTAFEHHEIFSYPEIYFLGLNAKKRQGMTGGPNNGGYDDDQGSYVQVPHDHVAYRYEVLKVIGKGSFGQVVKAYDHKVHQHVALKMVRNEKRFHRQAAEEIRILEHLRKQDKDNTMNVIHMLENFTFRNHICMTFELLSMNLYELIKKNKFQGFSLPLVRKFAHSILQCLDALHKNRIIHCDLKPENILLKQQGRSGIKVIDFGSSCYEHQRVYTYIQSRFYRAPEVILGARYGMPIDMWSLGCILAELLTGYPLLPGEDEGDQLACMIELLGMPSQKLLDASKRAKNFVSSKGYPRYCTVTTLSDGSVVLNGGRSRRGKLRGPPESREWGNALKGCDDPLFLDFLKQCLEWDPAVRMTPGQALRHPWLRRRLPKPPTGEKTSVKRITESTGAITSISKLPPPSSSASKLRTNLAQMTDANGNIQQRTVLPKLVS

What was measured:
[1] = target: T1, human EID-1 with an N-terminal V5-HIS6 …
[2] = target: T2, human EID-1 (SEQ ID NO:4) expressed in …

Protein	in vitro kinase assay with gamma-33P-ATP, radioactive band on Phosphorimager [1]	in vitro kinase assay with 33P-ATP, then LC-ES MS/MS of the Asp-N digest [2]
B1	There is a radioactive band that migrates at the same position as the EID-1 protein in the western blot while this band is absent in the vector alone lane	–
B2	–	there was a radioactive band that migrated at the same position as the EID-1 protein following electrophoresis
B3	There is a radioactive band that migrates at the same position as the EID-1 protein in the western blot while this band is absent in the vector alone lane	–
